Assay [1] concerns pS16-Hsp20 in SH-SY5Y cells. The assay is described as follows: Cell based Hsp20-PDE4D disruptor assay, nucleofected SH-SY5Y cells, pS16-Hsp20 Western blot. Also noted: species or system human. As to conditions: SH-SY5Y cells nucleofected with 500 μM peptide, 2 hours. As for the experimental part: FIG. 9. Disrupter induced HSP20 phosphorylation SH-SY5Y cells nucleofected with 500 μM of each peptide and incubated for 2 hours prior to harvesting. Each assay was blotted for Hsp20, pS16-Hsp20 and tubulin. Changes in levels of phospho-Hsp20 relative to DMSO only controls were quantified through densitometry analysis and each assay was normalised to α-tubulin loading control. The results are the average of three separate experiments and error bars represent SEM. *=p<0.05, **=p<0.01 compared to DMSO only controls (Student-T-test)
SDS-PAGE analysis was done on NuPage® pre-cast gels X-cell apparatus (Invitrogen, Paisley) using MES-SDS running buffer, Samples were reduced in Laemmli 2× loading buffer (4% SOS) with 5% β-mercaptoethanol. For Western Blotting (WB) analysis, samples were transferred using NuPage® X-cell blotting module onto a nitrocellulose membrane. Membranes were blocked using 5% Milk in 1×TBST (w/v). Antibodies were incubated in 1% milk in 1×TBST (w/v) for either 1 hour at room temperature or overnight at 4° C. Signals were detected using enhanced chemiluminescence system (Pierce) and developed on an X-omat film developer. Subsequent densitometry analysis was carried out using Quantity One (Bio-Rad).
SH-SY5Y cells (ATCC-CRL-2266) were grown in Dulbecco's Modified Eagle's Medium (DMEM) and F12-Ham's at a 1:1 ratio, media was supplemented with 10% (v/v) fetal bovine serum (FBS), 1% (v/v) L-Glutamine, 1% (v/v) Minimum Essential Medium—With Non-essential Amino Acids (MEM-NAA) and 1% (v/v) Pen/strep. Cells were cultured in a humidified, 5% (v/v) CO2, 37° C. incubator.
SH-SY5Y cells were nucleofected using Cell Line Nucleofector® Kit-V in accordance with manufacturers protocol (Amaxa Biosystems). Setting A-23 on the Nucleofector I device was used which increases cell viability. For each assay, 500 μM of disrupter peptide was incubated with 100 μl of nucleofection solution containing approximately 2×10^6 cells. After nucleofection cells were re-suspended in 500 μl of culture media before being transferred to a 6 well plate with a final volume of 2 ml per well. Cells were incubated for 2 hours prior to harvesting with […] containing protease and phosphatase inhibitors (Roche).
As the cell permeability of the peptides is unknown we used an electroporation technique to introduce the peptides into the SH-SY5Y cells. The Amaxa cell-line specific Nucleofector Kit V (Lonza) was used to transfect the peptides into the cells. […] Each assay used a final concentration of 500 μM of peptide in nucleofector solution containing approximately 2×10^6 SH-SY5Y cells. As peptides were dissolved in 100% DMSO, control transfections with DMSO only were used to compare any changes in phospho-Hsp20 levels. After each transfection the solution was reconstituted in culture media and incubated for 2 hours to allow for cell adhesion prior to the harvesting of viable cells.
In general terms: A western blot detects proteins with antibodies after separation by electrophoresis.

Assay [2] addresses T1, His-HSP20 (purified recombinant His-tagged HSP20) (human, UniProt O14558 1-160).
T1 construct: Expressed in E. coli BL21 from pET28c and purified on nickel; also called HSP20-His; HSP20-6His; not shown: His tag from the pET28c vector
T1 sequence: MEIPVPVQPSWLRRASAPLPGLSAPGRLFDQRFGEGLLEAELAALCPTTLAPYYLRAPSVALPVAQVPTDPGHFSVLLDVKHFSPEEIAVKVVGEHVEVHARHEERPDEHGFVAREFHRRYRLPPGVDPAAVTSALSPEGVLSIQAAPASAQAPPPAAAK
Kind of assay: SPOT peptide array overlaid with purified His-Hsp20. As for the experimental part:
A variety of peptides were generated and SPOT-synthesised onto slides which were then overlaid with 10 μg/ml of purified His-Hsp20. Interaction with peptides and Hsp20 was evaluated by probing slides with anti-His or Hsp20 antibodies and analysed using enhanced chemi-luminescence techniques, Negative controls used anti-His antibody only with no overlay of His-Hsp20 protein (data not shown).

As to Ac-FKLLQ-NH2 [Peptide 9], the “pS16-Hsp20 levels relative to DMSO only controls” value in assay [1] is reported as “indistinguishable from DMSO only controls”.
Still for that read-out and setting: to Ac-FQNLTK-NH2 [Peptide 6] belongs “significant increase in pS16-Hsp20 levels”; to Ac-GFALL-NH2 [Peptide 16], “average value similar to the DMSO only controls”; to Ac-GFKLL-NH2 [Peptide 11], “indistinguishable from DMSO only controls”.
As for Ac-GFRLL-NH2 [Peptide 12], in assay [1], the “pS16-Hsp20 levels relative to DMSO only controls” value is “induced an average increase when compared with DMSO only controls”.
The same measure, in the same setting: to Ac-KFKLL-NH2 [Peptide 13] belongs “induced an average increase when compared with DMSO only controls”.
Same read-out and setting: in the case of “Ac-LTK-NH2 (Ac-Leu-Thr-Lys-NH2) [Peptide 7]” it was “significant increase in pS16-Hsp20 levels”; in that of Ac-YQNLTK-NH2 [Peptide 3], “no effect on phosphorylation levels”.

B1: Ac-FQNLTK-NH2 (peptide)
peptide: Ac-FQNLTK-NH2
notes: On the array SPOT-synthesised on a slide; also called peptide No 6
B1: the binding result in assay [2] was “binds”.

B2: Ac-FQNLTA-NH2 (peptide)
peptide: Ac-FQNLTA-NH2
notes: Negative control; On the array SPOT-synthesised on a slide; also called peptide No 4
On to B2, for which the binding result in assay [2] was “no binding (tested: 10 ug/ml His-Hsp20 overlay)”.

B3: Ac-FQNLTR-NH2 (peptide)
peptide: Ac-FQNLTR-NH2
notes: On the array SPOT-synthesised on a slide; also called peptide No 5
For the molecule B3, the binding result in assay [2] was “binds”.

B4: Ac-YQNLTK-NH2 (peptide)
peptide: Ac-YQNLTK-NH2
notes: On the array the peptide was SPOT-synthesised on a slide; the soluble form Ac-...-NH2 was made 'to resemble SPOT synthesised peptides'; also called peptide No 3
Consider B4, for which the binding result in assay [2] was “binds”.

B5: Ac-GFKLL-NH2 (peptide)
peptide: Ac-GFKLL-NH2
notes: On the array SPOT-synthesised on a slide; also called peptide No 11
As to B5, in assay [2], the binding result is given as “binds”.

B6: Ac-KFKLL-NH2 (peptide)
peptide: Ac-KFKLL-NH2
notes: On the array SPOT-synthesised on a slide; also called peptide No 13
For the molecule B6, in assay [2], the binding result is given as “binds”.

B7: Ac-GFRLL-NH2 (peptide)
peptide: Ac-GFRLL-NH2
notes: On the array SPOT-synthesised on a slide; also called peptide No 12
With B7, the binding result in assay [2] is on record as “binds”.

B8: Ac-RFKLL-NH2 (peptide)
peptide: Ac-RFKLL-NH2
notes: On the array SPOT-synthesised on a slide; also called peptide No 14
Regarding B8, the binding result in assay [2] was “binds”.

B9: Ac-GFALL-NH2 (peptide)
peptide: Ac-GFALL-NH2
notes: Negative control; On the array SPOT-synthesised on a slide; also called peptide No 16
As to B9, in assay [2], the binding result is “no binding (tested: 10 ug/ml His-Hsp20 overlay)”.

B10: Ac-FKLLQ-NH2 (peptide)
peptide: Ac-FKLLQ-NH2
notes: On the array SPOT-synthesised on a slide; also called peptide No 9
Take B10: the binding result in assay [2] was “binds”.
